Entries after “also recorded” stand apart in the source; their conditions may differ. Ends that are not written are not given here.

The test system of test [1] is mossy fiber synapses of hippocampal CA3 pyramidal neurons. Put plainly: Mossy fiber LTP, whole-cell patch clamp in hippocampal slices. The test is classed as cell-based, mice. To be noted: for LTP (potentiation of EPSCs after tetanic stimulation): bath application 5 μg/ml. The procedure:
The role of the GluR2 subunit in LTP at mossy fiber terminals was evaluated in whole cell patch clamp experiments using hippocampal CA3 pyramidal neurons. Briefly, transverse hippocampal slices (350 μm) were made from P12-18 mice (strain 129SvEv) as previously described (Contractor et al., Neuron 29, 209-16. (2001)). Slices were transferred to a recording chamber, and whole-cell patch clamp recordings made from visually identified pyramidal cells in the CA3 region of the hippocampus. The recording electrode (i.e., patch electrode) is filled with an “internal” solution described below. A seal between the glass of the electrode and the membrane of the cell is made. The seal is then “broken through” by pushing the electrode through the membrane to gain low resistance access to the cell interior and enable voltage clamping of the cell membrane. This also allows dialysis of the cell with test reagents such as peptides and antibodies. A stimulating electrode is attached to a current source and allows current to stimulate action potentials while a reference electrode is placed in the recording bath. The composition of the internal solution was: 95 mM CsF, 25 mM CsCl, 10 mM Cs-HEPES, 10 mM Cs-EGTA, 2 mM NaCl, 2 mM Mg-ATP, 10 mM QX-314, 5 mM TEA-Cl, 5 mM 4-AP, pH adjusted to 7.3 with CsOH.
Peptides were added directly to the internal solution on the day of the experiment from frozen stocks in protease inhibitors made up in phosphate buffered saline (PBS). To avoid leakage of peptides or antibodies into the extracellular space, pipette tips were filled with normal internal solution and then the pipette was backfilled with peptide/antibody containing internal fluid. The final concentration of peptides was 50 μM in all experiments. The final concentration of protease inhibitors were: bestatin 2 μg/ml, leupeptin 25 ng/ml, pepstatin 35 ng/ml, aprotinin 100 ng/ml.
In control experiments where peptides were not included, internal solutions were made up in exactly the same way with protease inhibitors in PBS but lacking any added peptide. Antibodies were made up in PBS stock and added directly to the internal solution at a final concentration of 20 μg/ml. The pH and osmolarity of all internal solutions were checked before use. Series resistances (Rs) were generally <10M and were continuously monitored throughout the duration of the experiment. […] Experiments using mutant mice were performed with heterozygous breedings blind to the genotype of the animal.
Mossy fiber EPSCs were evoked with a monopolar glass electrode positioned in the stratum lucidum. EPSCs were evaluated using a 40 ms interval between recordings. All recordings were made in the continuous presence of bicuculline (10 μM), picrotoxin (50 μM) and the NMDA receptor antagonist D-AP5 [D(-)-2-Amino-5-phosphonopentanoic acid; 50 μM]. The group II mGluR agonist, LCCG-1 (10 μM), which selectively depresses mossy fiber transmission, was applied at the end of each experiment. LTP was induced by tetanic stimulation comprising three 1 s stimulations (100 Hz) with a 10 s interval. Data are presented as mean±SEM. Parameters were compared using the Student's unpaired t-test where not specified, and the K-S test, p<0.05 was considered significant.
Cumulative probability is determined by ranking the EPSC data set from the highest to the lowest value from 20 to 30 minutes post tetanization. Each point is graphed with its corresponding percentile. […] The lowest LTP value was about 40% signified by the lowest point on the 1 st graph (open circles) and the largest LTP was about 160%.

Test [2] has the same test system. Description: Forskolin-mediated potentiation of mossy fiber EPSCs. The test is classed as cell-based, mice. To be noted: for forskolin potentiation of mossy fiber EPSCs after pre-application of Fc fusion protein: Fc fusion protein bath applied before forskolin; for effect on forskolin enhancement / mossy fiber transmission: bath application.
The target in test [3] is presynaptic ephrin-B ligands. Put plainly: cell-based or functional assay.
The mark [4] stands for this setting: peptide 50 μM in patch electrode, 40 ms interval.
[5] abbreviates: Fc fusion protein, bath application.

As for `N[C@H](C(=O)O)[C@H]1C[C@@H]1C(=O)O` [LCCG-1, (2S,1′S,2′S)-2-(carboxycyclopropyl)glycine, reference compound], in test [1] (applied at the end of each experiment, 10 μM), the “effect on mossy fiber EPSC” value is given as “caused inhibition of the EPSC”.
Consider `C=C[C@@]1(C)CC(=O)[C@]2(O)[C@@]3(C)[C@@H](O)CCC(C)(C)[C@@H]3[C@H](O)[C@H](OC(C)=O)[C@@]2(C)O1` [forskolin, reference compound], for which the “potentiation of mossy fiber EPSCs by forskolin” value in test [2] (bath application of forskolin alone, 20-30 minutes after application) came to 275±38%.
In the case of “LHLHGTGIQV [EphA7 peptide, reference compound]”, the “LTP (potentiation of the EPSC after tetanic stimulation)” value in test [1] (peptide 50 μM in patch electrode (postsynaptic), 25 to 30 minutes after tetanic stimulation) is recorded as 250±46%. Also, in test [1] (setting [4]), the “LTP PPR (paired pulse ratio after LTP induction)” value was found to be 2.3±0.22 and the “control PPR (paired pulse ratio before LTP induction)” value was determined as 2.8±0.15. In test [1] (peptide 50 μM in patch electrode, immediately following tetanic stimulation), the “PTP (post-tetanic potentiation)” value was determined as 990±180%. Also, the “paired pulse ratio after LTP induction versus pretetanic” value in test [1] (peptide in patch electrode) is reported as “significantly reduced relative to pretetanic recording”.

B1: ephrin-B1-Fc: mouse ephrin (Met 1 to Ser 229), a linker, Human gamma heavy chain (Pro 100 to Lys 330) and (His)5 (protein)
chain (part 1 of 2): ATPLAKNLEPVSWSSLNPKFLSGKGLVIYPKIGDKLDIICPRAEAGRPYEYYKLYLVRPEQAAACSTVLDPNVLVTCNKPHQEIRFTIKFQEFSPNYMGLEFKKYHDYYITSTSNGSLEGLENREGGVCRTRTMKIVMKVGQDPNAVTPEQLTTSRPSKESDNTVKTATQAPGRGSQGDSDGKHETVNQEEKSGPGAGGGGSGDSIEGRMD
chain (part 2 of 2): HHHHH
modifications: left off: a dimerising Fc or GST
In the case of B1, in test [2], the “forskolin potentiation of mossy fiber EPSCs after pre-application of Fc fusion protein” value came to 219±15% and the “effect on forskolin enhancement / mossy fiber transmission” value is given as “does not affect Forskolin enhancement”. In test [1] (setting [5]), the “PTP (post-tetanic potentiation)” value is reported as 430±100%, the “effect on LTP induction” value is reported as “significantly impair LTP induction”, the “effect on basal synaptic transmission / baseline EPSC amplitudes” value is listed as “did not alter the baseline EPSC amplitudes; also recorded: does not affect basal transmission” and the “effect on post-tetanic potentiation / short-term plasticity” value is “significantly impaired”. Also, the “paired pulse ratio, effect” value in test [1] (setting [5]) is given as “no significant difference in PPR”. Besides, the “LTP (potentiation of EPSCs after tetanic stimulation)” value in test [1] (Fc fusion protein) was determined as 139±12%.

B2: EphB2-Fc fusion protein (Fc fusion, mouse, not shown: a dimerising Fc or GST)
chain (part 1 of 2): VEETLMDSTTATAELGWMVHPPSGWEEVSGYDENMNTIRTYQVCNVFESSQNNWLRTKFIRRRGAHRIHVEMKFSVRDCSSIPSVPGSCKETFNLYYYEADFDLATKTFPNWMENPWVKVDTIAADESFSQVDLGGRVMKINTEVRSFGPVSRNGFYLAFQDYGGCMSLIAVRVFYRKCPRIIQNGAIFQETLSGAESTSLVAARGSCIANAEEVDVPIKLYCNGDGEWLVPIGRCMCKAGFEAVENGTVCRGCPSGTFKANQGDEACTHCPINSRTTSEGATNCVCRNGYYRADLDPLDMPCTTIPSAPQAVISSVNETSLMLEWTPPRDSGGREDLVYNIICKSCGSGRGACTRCGDNVQYAPRQLGLTEPRIYISDLLAHTQYTFEIQAVNGVTDQSPFSPQFASVNITTNQAAPSAVSIMHQVSRTVDSITLSWSQPDQPNGVILDYELQYYEKELSEYNATAIKSPTNTVTVQGLKAGAIYVFQVRARTVAGYGRYSGKMYFQTMTEAEYQTSIKEKLPLIVGDIEGRMD
chain (part 2 of 2): HHHHH
For B2, in test [3], the LTP after tetanic stimulation in the presence of EphB2-Fc came out at 134%; the basal EPSC amplitude during bath application (5 µg/ml) worked out at 145%; the forskolin potentiation of mossy fiber EPSCs 30 mins after washout, after EphB2-Fc was 118%; the post-tetanic potentiation was determined as 420%. For the same molecule, in test [3], the potentiation of baseline EPSC amplitudes on bath application came to 148%.

B3: EphB2-Fc: mouse EphB2 (Met 1 to Lys 546), a linker, Human gamma heavy chain (Pro 100 to Lys 330) and (His)5 (protein)
chain (part 1 of 2): VEETLMDSTTATAELGWMVHPPSGWEEVSGYDENMNTIRTYQVCNVFESSQNNWLRTKFIRRRGAHRIHVEMKFSVRDCSSIPSVPGSCKETFNLYYYEADFDLATKTFPNWMENPWVKVDTIAADESFSQVDLGGRVMKINTEVRSFGPVSRNGFYLAFQDYGGCMSLIAVRVFYRKCPRIIQNGAIFQETLSGAESTSLVAARGSCIANAEEVDVPIKLYCNGDGEWLVPIGRCMCKAGFEAVENGTVCRGCPSGTFKANQGDEACTHCPINSRTTSEGATNCVCRNGYYRADLDPLDMPCTTIPSAPQAVISSVNETSLMLEWTPPRDSGGREDLVYNIICKSCGSGRGACTRCGDNVQYAPRQLGLTEPRIYISDLLAHTQYTFEIQAVNGVTDQSPFSPQFASVNITTNQAAPSAVSIMHQVSRTVDSITLSWSQPDQPNGVILDYELQYYEKELSEYNATAIKSPTNTVTVQGLKAGAIYVFQVRARTVAGYGRYSGKMYFQTMTEAEYQTSIKEKLPLIVGDIEGRMD
chain (part 2 of 2): HHHHH
modifications: left off: a dimerising Fc or GST
Turning to B3, in test [2], the “forskolin potentiation of mossy fiber EPSCs after pre-application of Fc fusion protein” value came to 118±10% and the “effect on forskolin enhancement / mossy fiber transmission” value is recorded as “inhibits subsequent forskolin effects”. The “potentiation of baseline amplitudes” value in test [2] (bath applied before forskolin) stood at 148±19%. Moreover, in test [1] (setting [5]), the “LTP PPR” value is 2.2 ±0.2, the “PTP (post-tetanic potentiation)” value is given as 420±85%, the “control PPR” value was determined as 2.5±0.3 and the “effect on LTP induction” value is recorded as “inhibits subsequent tetanus induced LTP”. The “paired pulse ratio, effect” value in test [1] (setting [5]) is listed as “small, non-significant reduction in the baseline PPR; also recorded: not significantly reduced”. The “LTP (potentiation of EPSCs after tetanic stimulation)” value in test [1] (Fc fusion protein) is on record as 134±13%. The “increase in the basal EPSC amplitude” value in test [1] (bath application 5 μg/ml for twenty minutes during baseline recording) stood at 145±13%.

(Values after US20040241754A1, “Modulating neuronal plasticity” (The Salk Institute for Biological Studies, priority 2003, published 2004).)
